B1: Phage-765 (peptide)
peptide: YCDGHRPEYMEKCL
notes: Tested as clonal phage supernatant
B2: Phage-771 (peptide)
peptide: YCEGHSPEYMWKCL
notes: as for B1
B3: Phage-767 (peptide)
peptide: YCEGHLQEYMEKCL
notes: as for B1
B4: Phage-764 (peptide)
peptide: YCDGHLKEYMAKCL
notes: as for B1
B5: Phage-774 (peptide)
peptide: YCEGHLSEYMSKCL
notes: as for B1
B6: Phage-763 (peptide)
peptide: YCAGHLPQYIAKCL
notes: as for B1
B7: Phage-762 (peptide)
peptide: YCAGHAPQYMEKCL
notes: as for B1
B8: Phage-770 (peptide)
peptide: YCDGHLAEYMPKCL
notes: as for B1
B9: Phage-769 (peptide)
peptide: YCDGHSPEYMPKCL
notes: as for B1
B10: Phage-768 (peptide)
peptide: YCEGHIPEYMAKCL
notes: as for B1
B11: Phage-766 (peptide)
peptide: YCDGHLPEYMGKCL
notes: as for B1
B12: Phage-772 (peptide)
peptide: YCDGHIDEYLQKCL
notes: as for B1
B13: Phage-773 (peptide)
peptide: YCEGHVAEYMLKCL
notes: as for B1
B14: Phage-754 (peptide)
peptide: YCEGHSEEYMSKCL
notes: as for B1
B15: Phage-756 (peptide)
peptide: YCDGHAPEYMKKCL
notes: as for B1
B16: Phage-755 (peptide)
peptide: YCDGHSQEYMWKCL
notes: as for B1
B17: Phage-759 (peptide)
peptide: YCDGHAEEYMSKCL
notes: as for B1
B18: Phage-753 (peptide)
peptide: YCDGHLDIYLAKCL
notes: as for B1
B19: Phage-761 (peptide)
peptide: YCAGHLEEYMDKCL
notes: as for B1
B20: Phage-760 (peptide)
peptide: YCDGHVEEYLYKCL
notes: as for B1
B21: Phage-752 (peptide)
peptide: YCEGHSSEYMEKCL
notes: as for B1
B22: Phage-758 (peptide)
peptide: YCDGHEPQYLEKCL
notes: as for B1
B23: Phage-757 (peptide)
peptide: YCDGHSKEYMHKCL
notes: as for B1
B24: Phage-751 (peptide)
peptide: YCEGHLAVYMQKCL
notes: as for B1
B25: Phage-775 (peptide)
peptide: YCEGHMSEYMAKCL
notes: not shown: fused to the pIII filament protein of the bacteriophage
B26: Phage-786 (peptide)
peptide: YCEGHRSEYMAKCL
notes: as for B25
B27: Phage-782 (peptide)
peptide: YCEGHSWEYIGKCL
notes: as for B25
B28: Phage-781 (peptide)
peptide: YCEGHSPLYMSKCL
notes: as for B25
B29: Phage-779 (peptide)
peptide: YCEGHLPEYMMKCL
notes: as for B25
B30: Phage-780 (peptide)
peptide: YCDGHLPEYMRKCL
notes: as for B25
B31: Phage-778 (peptide)
peptide: YCEGHSYEYMWKCL
notes: as for B25
B32: Phage-777 (peptide)
peptide: YCEGHSLEYMAKCL
notes: as for B25
B33: Phage-784 (peptide)
peptide: YCDGHTGVYFYKCL
notes: as for B25
B34: Phage-776 (peptide)
peptide: YCDGHSWEYIQKCL
notes: Position 10 is printed as '--' and was read as unchanged (I); not shown: fused to the pIII filament protein of the bacteriophage
B35: Phage-787 (peptide)
peptide: YCDGHLAMYMDKCL
notes: as for B25
B36: Phage-783 (peptide)
peptide: YCDGHSALYMSKCL
notes: as for B25
B37: Phage-785 (peptide)
peptide: YCEGHTSEYMNKCL
notes: as for B25

Molecular target: T1, Anti-CD28 Fab (SEQ ID NOs: 696, 697)
T1 construct: In the phage ELISA the Fab was biotinylated and captured on neutravidin coated plates
Assay: phage ELISA on anti-CD28 Fab pre-incubated with CD28 antigen as competitor, anti-M13 HRP detection
T1 sequence (VH, as listed by the source, chain 1 of 2): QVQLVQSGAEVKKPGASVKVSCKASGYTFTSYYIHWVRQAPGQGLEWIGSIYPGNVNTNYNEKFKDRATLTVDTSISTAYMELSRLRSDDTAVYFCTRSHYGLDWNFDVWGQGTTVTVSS
T1 sequence (VL, as listed by the source, chain 2 of 2): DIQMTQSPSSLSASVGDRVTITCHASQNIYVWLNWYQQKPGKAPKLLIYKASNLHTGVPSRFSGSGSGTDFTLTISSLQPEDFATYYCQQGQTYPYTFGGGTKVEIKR

| Binder | Phage binding ELISA, Anti-CD28 Fab signal in the presence of CD28 |
| --- | --- |
| B1 | 0.06 |
| B2 | 0.09 |
| B3 | 0.1 |
| B4 | 0.07 |
| B5 | 0.09 |
| B6 | 0.09 |
| B7 | 0.08 |
| B8 | 0.07 |
| B9 | 0.08 |
| B10 | 0.06 |
| B11 | 0.11 |
| B12 | 0.06 |
| B13 | 0.05 |

Molecular target: T2, Anti-CD28 Fab (SEQ ID NOs: 696, 697)
T2 construct: The Fab was biotinylated and captured on neutravidin coated plates in the phage ELISA
Assay: phage binding ELISA on anti-CD28 Fab plate; competitor: CD28 antigen pre-incubated in the wells
T2 sequence (VH, as listed by the source, chain 1 of 2): as the sequence (VH, as listed by the source, chain 1 of 2) above
T2 sequence (VL, as listed by the source, chain 2 of 2): as the sequence (VL, as listed by the source, chain 2 of 2) above
Experimental: (§1) After panning, phage infected bacteria were plated out and colonies picked into 96 well blocks. Clonal phage was then amplified and separated from bacterial cells via centrifugation.
(§2) Clonal phage were harvested as crude supematants and screened via standard ELISAs. […] Prior to the addition of clonal phage, wells were incubated with blocking buffer and CD28 antigen or blocking buffer alone. Without washing or aspirating, clonal phage supematants were then added to the wells and incubated for a short time. Wells were then washed followed by detection of bound phage using a horse radish conjugated anti-M13 antibody. Clonal phage of interest were then sent for sequence analysis.

| Binder | Anti-CD28 Fab signal in the presence of CD28 |
| --- | --- |
| B14 | 0.07 |
| B15 | 0.06 |
| B16 | 0.09 |
| B17 | 0.09 |
| B18 | 0.08 |
| B19 | 0.06 |
| B20 | 0.06 |
| B21 | 0.06 |
| B22 | 0.08 |
| B23 | 0.07 |
| B24 | 0.1 |

Molecular target: T2, Anti-CD28 Fab (SEQ ID NOs: 696, 697)
Assay: phage binding ELISA; biotinylated anti-CD28 Fab on neutravidin plate, bound phage detected with anti-M13 HRP;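 note: crude supernatants of clonal phage screened, wells pretreated with blocking buffer with or without CD28 antigen before brief phage incubation, washed, then bound phage detected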

| Binder | Anti-CD28 Fab (SEQ ID NOs: 696, 697) signal |
| --- | --- |
| B14 | 1.91 |
| B15 | 1.9 |
| B16 | 1.9 |
| B17 | 1.9 |
| B18 | 1.91 |
| B19 | 1.9 |
| B20 | 1.9 |
| B21 | 1.91 |
| B22 | 1.9 |
| B23 | 1.9 |
| B24 | 1.91 |

Molecular target: T3, Anti-CD28 Fab (SEQ ID NOs: 696, 697)
T3 construct: Biotinylated Fab captured on neutravidin coated plates in the phage ELISA
Assay: phage ELISA; biotinylated anti-CD28 Fab on neutravidin plate, bound phage detected with anti-M13 HRP antibody
T3 sequence (VH, as listed by the source, chain 1 of 2): as the sequence (VH, as listed by the source, chain 1 of 2) above
T3 sequence (VL, as listed by the source, chain 2 of 2): as the sequence (VL, as listed by the source, chain 2 of 2) above
Experimental: as §1, §2

| Binder | Anti-CD28 Fab signal (phage binding ELISA) |
| --- | --- |
| B25 | 1.88 |
| B26 | 1.86 |
| B27 | 1.87 |
| B28 | 1.87 |
| B29 | 1.88 |
| B30 | 1.88 |
| B31 | 1.88 |
| B32 | 1.88 |
| B33 | 1.87 |
| B34 | 1.88 |
| B35 | 1.86 |
| B36 | 1.87 |
| B37 | 1.87 |

Molecular target: T3, Anti-CD28 Fab (SEQ ID NOs: 696, 697)
Assay: phage ELISA on captured anti-CD28 Fab; competitor CD28 antigen pre-incubated in the wells;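 note: clonal phage supernatants added to wells preloaded with CD28 antigen in blocking buffer, control wells buffer only, bound phage read via HRP-linked anti-M13 antibody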

| Binder | Anti-CD28 Fab signal in the presence of CD28 (phage binding ELISA) |
| --- | --- |
| B25 | 0.11 |
| B26 | 0.06 |
| B27 | 0.07 |
| B28 | 0.09 |
| B29 | 0.27 |
| B30 | 0.08 |
| B31 | 0.08 |
| B32 | 0.08 |
| B33 | 0.08 |
| B34 | 0.07 |
| B35 | 0.08 |
| B36 | 0.08 |
| B37 | 0.06 |

Molecular target: T1, Anti-CD28 Fab (SEQ ID NOs: 696, 697)
Assay: phage ELISA; biotinylated anti-CD28 Fab on neutravidin plate, clonal phage supernatant, anti-M13 HRP detection;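 note: crude supernatants of single phage clones picked after panning were screened for binding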

| Binder | Phage binding ELISA, Anti-CD28 Fab signal |
| --- | --- |
| B1 | 1.9 |
| B2 | 1.89 |
| B3 | 1.89 |
| B4 | 1.9 |
| B5 | 1.88 |
| B6 | 1.9 |
| B7 | 1.9 |
| B8 | 1.89 |
| B9 | 1.89 |
| B10 | 1.89 |
| B11 | 1.89 |
| B12 | 1.88 |
| B13 | 1.88 |
